Measurements taken from the RNAGym collection of RNA variant scans (doi:10.1021/acssynbio.7b00057).

B1: Pistol ribozyme (parent)
chain: GGGUCGUUGUUCCAUAAUCGCGUGGAUAUGGCACGCAAGUUUCUACCGGGCACCGUAAAUGUCCGACUGGAGCCGUUCGGGCGGCUAUAAACAGACCUCAGGCCCGAAGCGUGGCGGCACCUGCCGCCGGUGGUAAAAAAGAUCGGAAGAGCACACGUCU

Variants of: B1
Assay: aptazyme ON/OFF ratio, guanine; higher = stronger switching; co-transcriptional cleavage with and without guanine

Going from U7C U8A U10G C12U C13G to U7C U8A U10C U11C C12G C13U, the “aptazyme ON/OFF ratio” value falls from 1.13 to 1.09.

Compared with U7C U8A U10C U11C C12G C13A, U7C U8A U10C U11C C12G C13G is lower in “aptazyme ON/OFF ratio” value: 1.2 for the first, 1.12 for the second.

Compared with U7C U8A G9U U10G U11C C13A, U7C U8A G9U U10G U11C C13G is lower in “aptazyme ON/OFF ratio” value: 1.2 for the first, 1.07 for the second.

Compared with U7C U8A G9U U10G U11C C13U, U7C U8A U10C U11A C12U C13A is higher in “aptazyme ON/OFF ratio” value: 1.05 for the first, 1.16 for the second.

First: U7C U8A U10C U11A C12U C13U
Second: U7C U8A U10C U11A C12U C13G
The “aptazyme ON/OFF ratio” value of the first is lower: 1.16 for the first, 1.17 for the second.

First: U7C U8A U10C U11A C13A
Second: U7C U8A U10C U11A C13U
The “aptazyme ON/OFF ratio” value of the first is lower: 1.12 for the first, 1.16 for the second.

First: U7C U8A U10C U11A C13G
Second: U7C U8A G9U U10G U11A C12G C13G
The “aptazyme ON/OFF ratio” value of the first is lower: 1.15 for the first, 1.22 for the second.

Going from U7C U8A G9U U10G U11A C12G C13A to U7C U8A G9U U10G U11A C12G C13U, the “aptazyme ON/OFF ratio” value falls from 1.21 to 1.2.

First: U7C U8A G9U U10G U11C C12U C13U
Second: U7C U8A G9U U10G U11C C12U C13G
The “aptazyme ON/OFF ratio” value of the first is higher: 1.22 for the first, 1.14 for the second.

Compared with U7C U8A G9U U10G U11C C12U C13A, U7C U8A G9U U10C U11G C12U is higher in “aptazyme ON/OFF ratio” value: 1.16 for the first, 1.21 for the second.

Compared with U7C U8A G9U U10G U11C C12U, U7C U8A G9U U10G U11C C12G is higher in “aptazyme ON/OFF ratio” value: 1.07 for the first, 1.26 for the second.

First: U7C U8A G9U U10G U11C C12A
Second: U7C U8A G9U U10G U11G C12A C13A
The “aptazyme ON/OFF ratio” value of the first is higher: 1.21 for the first, 1.07 for the second.

Compared with U7C U8A G9U U10G U11G C12A C13G, U7C U8A G9U U10G U11G C12A C13U is higher in “aptazyme ON/OFF ratio” value: 1.11 for the first, 1.26 for the second.

Going from U7C U8A U11C C12G C13A to U7C U8A U10G U11A C13U, the “aptazyme ON/OFF ratio” value falls from 1.3 to 1.07.

Going from U7C U8A U10G U11A C13G to U7C U8A U10G U11A C13A, the “aptazyme ON/OFF ratio” value falls from 1.17 to 1.11.

First: U7C U8A U10C C12G
Second: U7C U8A U10C C12A
The “aptazyme ON/OFF ratio” value of the first is higher: 1.63 for the first, 1.41 for the second.

Going from U7C U8A U10C C12U to U7C U8A U10C U11A C12A, the “aptazyme ON/OFF ratio” value falls from 3.73 to 1.27.

Compared with U7C U8A U10C U11A C12U, U7C U8A U10C U11A C12G is higher in “aptazyme ON/OFF ratio” value: 1.19 for the first, 1.2 for the second.

First: U7C U8A U10G U11A C12A
Second: U7C U8A U10G U11A C12G
The “aptazyme ON/OFF ratio” value of the first is lower: 1.22 for the first, 1.33 for the second.

Compared with U7C U8A U10G U11A C12U, U7C U8A U10C U11A C12A C13A is higher in “aptazyme ON/OFF ratio” value: 1.16 for the first, 1.2 for the second.

Compared with U7C U8A U10C U11A C12A C13U, U7C U8A U10C U11A C12A C13G is higher in “aptazyme ON/OFF ratio” value: 1.14 for the first, 1.17 for the second.

Compared with U7C U8A U11A C12U, U7C U8A U11A C12G is lower in “aptazyme ON/OFF ratio” value: 1.16 for the first, 1.09 for the second.

First: U7C U8A U11A C12A
Second: U7C U8A G9U U11C C12U C13U
The “aptazyme ON/OFF ratio” value of the first is higher: 1.28 for the first, 1.21 for the second.

Going from U7C U8A G9U U11C C12U C13A to U7C U8A G9U U11C C12U C13G, the “aptazyme ON/OFF ratio” value falls from 1.05 to 1.

Going from U7C U8A U11A to U7C U8A U11C, the “aptazyme ON/OFF ratio” value falls from 1.13 to 1.1.

First: U7C U8A U10C
Second: U7C U8A U10G
The “aptazyme ON/OFF ratio” value of the first is higher: 1.76 for the first, 1.37 for the second.

First: U7C U8A U10A
Second: U7C U8A G9U U11A C12G C13A
The “aptazyme ON/OFF ratio” value of the first is lower: 1.1 for the first, 1.17 for the second.

U7C U8A G9U U11A C12G C13U and U7C U8A G9U U11A C12G C13G are the same in “aptazyme ON/OFF ratio” value: 1.15 for the first, 1.15 for the second.

Going from U7C U8A G9U U10G to U7C U8A G9U U10G U11A C13G, the “aptazyme ON/OFF ratio” value falls from 1.26 to 1.07.

Going from U7C U8A G9U U10G U11A C13A to U7C U8A G9U U10G U11A C13U, the “aptazyme ON/OFF ratio” value falls from 1.06 to 1.03.

Going from U7C U8A U10C C12G C13G to U7C U8A U10C C12G C13U, the “aptazyme ON/OFF ratio” value rises from 1.16 to 1.31.

Compared with U7C U8A U10C C12G C13A, U7C U8A G9U U10G C13A is higher in “aptazyme ON/OFF ratio” value: 1.19 for the first, 1.41 for the second.

Compared with U7C U8A G9U U10G C13U, U7C U8A G9U U10G C13G is lower in “aptazyme ON/OFF ratio” value: 1.31 for the first, 1.08 for the second.

Going from U7C U8A G9U U11C C12G C13U to U7C U8A G9U U11C C12G C13A, the “aptazyme ON/OFF ratio” value rises from 1.16 to 1.17.

First: U7C U8A G9U U11C C12G C13G
Second: U7C U8A U10A U11A C12A
The “aptazyme ON/OFF ratio” value of the first is lower: 1.12 for the first, 1.15 for the second.

First: U7C U8A U10A U11A C12U
Second: U7C U8A U10A U11A C12G
The “aptazyme ON/OFF ratio” value of the first is higher: 1.26 for the first, 1.2 for the second.

Compared with U7C U8A U10C U11G C13A, U7C U8A U10C U11G C13G is lower in “aptazyme ON/OFF ratio” value: 1.17 for the first, 1.1 for the second.

First: U7C U8A U10C U11G C13U
Second: U7C U8A G9U U11G C12U C13A
The “aptazyme ON/OFF ratio” value of the first is lower: 1.16 for the first, 1.22 for the second.

Going from U7C U8A G9U U11G C12U C13G to U7C U8A G9U U11G C12U C13U, the “aptazyme ON/OFF ratio” value rises from 1.17 to 1.24.

Compared with U7C U8A G9U U10G U11C C12G C13A, U7C U8A G9U U10G U11C C12G C13G is higher in “aptazyme ON/OFF ratio” value: 1.22 for the first, 1.23 for the second.

First: U7C U8A G9U U10G U11C C12G C13U
Second: U7C U8A U10G U11G C12G C13U
The “aptazyme ON/OFF ratio” value of the first is lower: 1.24 for the first, 1.25 for the second.

In the case of U7C U8A U10G U11G C12G C13A, the “aptazyme ON/OFF ratio” value is reported as 1.08.
